{"source": "paper PMC6393246", "about": "“Structural identification of conserved RNA binding sites in herpesvirus ORF57 homologs: implications for PAN RNA recognition” (Nucleic Acids Research, 2018)", "binders": {"B1": {"name": "HVS ORF57 residues 146–417 (hvsORF57Δ146) (domain or fragment)", "chain": "PLLKLFDISILPKSGEPKLFLPVPSLPCQEAEKTNDKYVLAMAQRAMHDVPISSKQLTANLLPVKFKPLLSIVRYTPNYYYWVSMRKETIASANLCTVAAFLDESLCWGQQYLKNDFIFSENGKDIILDTSSALLSQLVHKIKMLPFCHCLMQTTPQDHIVKQVCYLIASNNRILDAVRYLQTSVIKSPIVLLLAYAVCLPAAIICTKNETQLYSHCMRILKEYRPGDVMNILHESLTQHLNKCPSSTCAYTTRAIVGTKANTTGLFFLPTQ", "notes": "ORF57 (ICP27 homolog) of herpesvirus saimiri (HVS), residues 146-417, the C-terminal ICP27-homology domain; Selenomethionine-derivatised protein was used for crystals of the free form; native protein for the RNA complex and SEC-MALS; also called C-terminal IHD of hvsORF57; C-terminal ICP27-homology domain of HVS ORF57; source: E. coli T7 express LysY, purified (StrepTrap HP, HRV3C cleavage, …)"}, "B2": {"name": "KSHV ORF57 residues 153–455 (ksORF57Δ153) (domain or fragment)", "chain": "PQVNCQRQDDDVRQGVSDAVKKLRLPASMIIDGESPRFDDSIIPRHHGACFNVFIPAPPSHVPEVFTDRDITALIRAGGKDDELINKKISAKKIDHLHRQMLSFVTSRHNQAYWVSCRRETAAAGGLQTLGAFVEEQMTWAQTVVRHGGWFDEKDIDIILDTAIFVCNAFVTRFRLLHLSCVFDKQSELALIKQVAYLVAMGNRLVEACNLLGEVKLNFRGGLLLAFVLTIPGMQSRRSISARGQELFRTLLEYYRPGDVMGLLNVIVMEHHSLCRNSECAAATRAAMGSAKFNKGLFFYPLS", "notes": "ORF57/Mta (ICP27 homolog) of Kaposi's sarcoma-associated herpesvirus (KSHV), residues 153-455, the C-terminal ICP27-homology domain; also called C-terminal IHD of ksORF57; source: E. coli T7 express LysY, purified (StrepTrap HP, HRV3C cleavage, Superdex 75); not shown: thioredoxin, N-terminal, cleaved"}, "B3": {"name": "14merS (ssRNA)", "RNA": "CAGUCGCGAAGAGG"}, "B4": {"name": "14mer1 (5'-biotin) (ssRNA)", "RNA": "CCGUCCCCGCCGCU"}, "B5": {"name": "PAN17 (5'-biotin) (ssRNA)", "RNA": "CACCUAUGGAUUUUGUG"}, "B6": {"name": "14merS (5'-biotin) (ssRNA)", "RNA": "CAGUCGCGAAGAGG"}, "B7": {"name": "PAN17 (crystal) (ssRNA)", "RNA": "CACCUAUGGAUUUUGUG"}, "B8": {"name": "PAN 42-49 (ssRNA)", "RNA": "GAUUUUGU"}}, "key": {"[1]": {"molecular_target": "the molecule itself", "experiment": "SEC-MALS; 0.5 ml at 1 mg/ml on Superdex 200 10/300GL, gel filtration buffer (20 mM HEPES, 150 mM NaCl, 50 mM L-Arg, 50 mM L-Glu, 1 mM TCEP, pH 7.4); homo-dimer"}, "[2]": {"molecular_target": "T1, ksORF57 68-178 (Kaposi's sarcoma-associated herpesvirus …, UniProt Q2HR75 68-178)", "T1 sequence": "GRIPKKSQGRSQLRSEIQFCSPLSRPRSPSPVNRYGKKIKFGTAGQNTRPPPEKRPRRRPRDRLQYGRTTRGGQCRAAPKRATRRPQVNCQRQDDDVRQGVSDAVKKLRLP", "experiment": "NMR HSQC; equimolar, 50 uM protein; substantial broadening; SPR: 20 mM HEPES, 250 mM NaCl, 0.05% Tween-20, pH 7.4, 25 C, protein up to 1 uM; NMR: 20 mM Na phosphate, 50 mM NaCl, 50 mM L-Arg, 50 mM L-Glu, 1 mM EDTA, 2 mM", "settings": "protein: recombinant; tags: His-tag (purification), 15N labelled"}, "[3]": {"molecular_target": "T2, UL69 200-540 (HCMV, UniProt P16749 200-540)", "T2 sequence": "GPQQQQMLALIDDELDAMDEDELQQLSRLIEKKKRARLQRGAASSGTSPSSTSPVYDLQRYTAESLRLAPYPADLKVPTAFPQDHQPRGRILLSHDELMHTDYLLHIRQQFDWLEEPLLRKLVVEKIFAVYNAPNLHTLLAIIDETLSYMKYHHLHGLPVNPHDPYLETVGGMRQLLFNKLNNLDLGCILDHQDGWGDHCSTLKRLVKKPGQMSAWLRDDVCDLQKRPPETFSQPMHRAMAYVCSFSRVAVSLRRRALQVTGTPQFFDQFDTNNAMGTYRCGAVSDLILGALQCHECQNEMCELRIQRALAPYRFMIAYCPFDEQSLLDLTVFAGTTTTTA", "experiment": "SPR; SPR: 20 mM HEPES, 250 mM NaCl, 0.05% Tween-20, pH 7.4, 25 C, protein up to 1 uM; NMR: 20 mM Na phosphate, 50 mM NaCl, 50 mM L-Arg, 50 mM L-Glu, 1 mM EDTA, 2 mM", "settings": "protein: recombinant; tags: Strep-tag (purification); chain copies: 4; label: 5'-biotin"}, "[4]": {"molecular_target": "T3, ksORF57Δ153 (Kaposi's sarcoma-associated herpesvirus …, UniProt Q2HR75 153-455)", "T3 sequence": "B2 chain", "experiment": "SPR; SPR: 20 mM HEPES, 250 mM NaCl, 0.05% Tween-20, pH 7.4, 25 C, protein up to 1 uM; NMR: 20 mM Na phosphate, 50 mM NaCl, 50 mM L-Arg, 50 mM L-Glu, 1 mM EDTA, 2 mM", "settings": "protein: recombinant; tags: thioredoxin/Strep tag cleaved by HRV3C; chain copies: 2; label: 5'-biotin"}, "[5]": {"molecular_target": "ICP27Δ241 (HSV-1, UniProt P10238 241-512)", "experiment": "SPR; SPR: 20 mM HEPES, 250 mM NaCl, 0.05% Tween-20, pH 7.4, 25 C, protein up to 1 uM; NMR: 20 mM Na phosphate, 50 mM NaCl, 50 mM L-Arg, 50 mM L-Glu, 1 mM EDTA, 2 mM", "settings": "protein: recombinant; tags: Strep-tag (purification); label: 5'-biotin"}, "[6]": {"molecular_target": "T4, hvsORF57Δ146 (herpesvirus saimiri (HVS), UniProt P13199 146-417)", "experiment": "SPR; SPR: 20 mM HEPES, 250 mM NaCl, 0.05% Tween-20, pH 7.4, 25 C, protein up to 1 uM; NMR: 20 mM Na phosphate, 50 mM NaCl, 50 mM L-Arg, 50 mM L-Glu, 1 mM EDTA, 2 mM", "settings": "protein: recombinant; tags: thioredoxin/Strep tag cleaved by HRV3C; residue 145 is cloning Gly; chain copies: 2; label: 5'-biotin"}, "[7]": {"molecular_target": "T4, hvsORF57Δ146", "experiment": "X-ray crystallography; Zn2+ in protein; Mg2+/Ca2+ in crystallization; SPR: 20 mM HEPES, 250 mM NaCl, 0.05% Tween-20, pH 7.4, 25 C, protein up to 1 uM; NMR: 20 mM Na phosphate, 50 mM NaCl, 50 mM L-Arg, 50 mM L-Glu, 1 mM EDTA, 2 mM", "settings": "protein: recombinant; tags: thioredoxin/Strep tag cleaved by HRV3C; residue 145 is cloning Gly; chain copies: 2"}, "[8]": {"molecular_target": "T4, hvsORF57Δ146", "experiment": "X-ray crystallography; same U-bend interaction as PAN17; data not shown; SPR: 20 mM HEPES, 250 mM NaCl, 0.05% Tween-20, pH 7.4, 25 C, protein up to 1 uM; NMR: 20 mM Na phosphate, 50 mM NaCl, 50 mM L-Arg, 50 mM L-Glu, 1 mM EDTA, 2 mM", "settings": "protein: recombinant; tags: thioredoxin/Strep tag cleaved by HRV3C; residue 145 is cloning Gly; chain copies: 2"}}}
{"binder": "B1", "values": [{"measurement": "stoichiometry N", "setting": "[1]", "value": 2}]}
{"binder": "B2", "values": [{"measurement": "stoichiometry N", "setting": "[1]", "value": 2}]}
{"binder": "B3", "values": [{"measurement": "binding result", "setting": "[2]", "value": "binds"}]}
{"binder": "B4", "values": [{"measurement": "binding result", "setting": "[3]", "value": "binds"}, {"measurement": "binding result", "setting": "[4]", "value": "no binding"}, {"measurement": "binding result", "setting": "[5]", "value": "no binding"}, {"measurement": "binding result", "setting": "[6]", "value": "no binding"}]}
{"binder": "B5", "values": [{"measurement": "binding result", "setting": "[3]", "value": "binds"}, {"measurement": "binding result", "setting": "[4]", "value": "binds"}, {"measurement": "binding result", "setting": "[5]", "value": "no binding"}, {"measurement": "binding result", "setting": "[6]", "value": "binds"}]}
{"binder": "B6", "values": [{"measurement": "binding result", "setting": "[3]", "value": "binds"}, {"measurement": "binding result", "setting": "[5]", "value": "no binding"}]}
{"binder": "B7", "values": [{"measurement": "binding result", "setting": "[7]", "value": "binds"}]}
{"binder": "B8", "values": [{"measurement": "binding result", "setting": "[8]", "value": "binds"}]}
